Results taken from paper PMC8754201, “Structures of Two Human Astrovirus Capsid/Neutralizing Antibody Complexes Reveal Distinct Epitopes and Inhibition of Virus Attachment to Cells” (Journal of Virology, 2021).

B1: scFv 3E8 (single-chain variable fragment of mouse monoclonal antibody 3E8) (scFv, V domains shown)
VH: DVQLQESGPGLVKPSQSLSLTCSVTGYSITSGYYWNWIRQFPGNKLEWMGYISYDGSNNYNPSLKNRISITRDTSKNQFFLKLNSVTTEDTATYYCATFYDGYDYWGQGTTLTVSS
VL: DIVMTQSHKFMSTSVGDRVSITCKASQDVSTAVAWYQQKPGQSPKLLIYWASTRHTGVPDRFTGSGSGTDYTLTISSVQAEDLALYYCQQHYSTPFTFGSGTKLEIK
notes: 3E8 kappa chain variable region; GGS(GGGGS)3 linker; 3E8 heavy chain variable region; A thrombin cleavage site stands between the scFv and the C-terminal Twin Strep-tag; source: CHO-S cells (electroporated), secreted, purified (StrepTrap HP)
B2: scFv 3E8, purification tag removed by thrombin (scFv, V domains shown)
VH: DVQLQESGPGLVKPSQSLSLTCSVTGYSITSGYYWNWIRQFPGNKLEWMGYISYDGSNNYNPSLKNRISITRDTSKNQFFLKLNSVTTEDTATYYCATFYDGYDYWGQGTTLTVSS
VL: DIVMTQSHKFMSTSVGDRVSITCKASQDVSTAVAWYQQKPGQSPKLLIYWASTRHTGVPDRFTGSGSGTDYTLTISSVQAEDLALYYCQQHYSTPFTFGSGTKLEIK
notes: 3E8 kappa chain variable region, as in m3; GGS(GGGGS)3 linker; 3E8 heavy chain variable region, as in m3; Same construct as m3 after thrombin digestion; source: CHO-S cells (electroporated), secreted, purified (StrepTrap HP); tag removed with thrombin during complex formation; not shown: Twin Strep-tag, C-terminal, cleaved
B3: scFv 2D9 (single-chain variable fragment of mouse monoclonal antibody 2D9) (scFv, V domains shown)
VH: QVQLKQSGPGLVQPSQSLSITCTVSGFSLTSYGVHWVRQSPGKGLEWLGVIWSGGSTDYNAAFISRLSISKDNSKSQVFFKMNSLQANDTAIYYCARNSLLDAMDYWGQGTSVTVSS
VL: SIVMTQTPKFLLVSAGDRVTITCKASQSVSNAVAWYQQKPGQSPKLLIYYASNRYTGVPDRFTGSGYGTDFTFTISTVQAEDLAVYFCQQDYSSPLTFGAGTKLELK
notes: 2D9 kappa chain variable region; GGS(GGGGS)3 linker; 2D9 heavy chain variable region; A thrombin cleavage site stands between the scFv and the C-terminal Twin Strep-tag; source: D. melanogaster Schneider 2 (S2) cells, stably transfected, secreted, purified (StrepTrap HP)
B4: scFv 2D9, purification tag removed by thrombin (scFv, V domains shown)
VH: QVQLKQSGPGLVQPSQSLSITCTVSGFSLTSYGVHWVRQSPGKGLEWLGVIWSGGSTDYNAAFISRLSISKDNSKSQVFFKMNSLQANDTAIYYCARNSLLDAMDYWGQGTSVTVSS
VL: SIVMTQTPKFLLVSAGDRVTITCKASQSVSNAVAWYQQKPGQSPKLLIYYASNRYTGVPDRFTGSGYGTDFTFTISTVQAEDLAVYFCQQDYSSPLTFGAGTKLELK
notes: 2D9 kappa chain variable region, as in m5; GGS(GGGGS)3 linker; 2D9 heavy chain variable region, as in m5; Same construct as m5 after thrombin digestion; source: D. melanogaster Schneider 2 (S2) cells, stably transfected, secreted, purified (StrepTrap HP); tag removed with thrombin during complex formation; not shown: Twin Strep-tag, C-terminal, cleaved

Legend:
Details in all cases: both partners purified
[1] = molecular target: T1, HAstV8 capsid spike (Spike 8) fused to a 10x histidine tag (Human astrovirus 8 (HAstV-8), Q9IFX1, UniProt Q9IFX1); assay: BLI; His-tagged Spike 8 (0.5 ug/ml) loaded on Anti-Penta-His (HIS1K) biosensors; scFv as analyte in six 1:2 serial dilutions (from 80 nM scFv 3E8 or 20 nM scFv 2D9); PBS pH 7.4, 2% BSA, 0.09% Tween 20; 22 C; global 1:1 fit; mean of triplicate assays
T1 construct: HAstV serotype 8 capsid spike protein, amino acids 429 to 647 of the capsid protein (UniProtKB entry Q9IFX1); A thrombin cleavage site stands between the spike and the C-terminal 10-histidine tag (pET52b); Captured on Anti-Penta-His sensors by the tag; also called His-tagged Spike 8; HAstV serotype 8 capsid spike protein; not shown: His10, C-terminal, kept

[2] = molecular target: T2, HAstV8 capsid spike (Spike 8), purification tag removed by thrombin (human astrovirus serotype 8 (HAstV8), UniProt Q9IFX1); assay: SEC; 3 molar excess scFv 3E8 with Spike 8 overnight at 4 C, tags removed with thrombin; Superdex 200 in TBS pH 7.2; coeluted at apparent ~105 kDa against gel filtration standards; data not shown
T2 construct: HAstV serotype 8 capsid spike protein, amino acids 429 to 647 of the capsid protein (UniProtKB entry Q9IFX1); Same construct as m1 after thrombin digestion; residues of the thrombin site may remain at the C-terminus; source: tag removed with thrombin during complex formation; not shown: His10, C-terminal, cleaved

[3] = molecular target: T2, HAstV8 capsid spike (Spike 8), …; assay: SEC; 3.5 molar excess scFv 2D9 with Spike 8 overnight at 4 C, tags removed with thrombin; Superdex 200 in TBS pH 8.0; coeluted at apparent ~105 kDa against gel filtration standards; data not shown

T2 sequence (Q9IFX1 429-647): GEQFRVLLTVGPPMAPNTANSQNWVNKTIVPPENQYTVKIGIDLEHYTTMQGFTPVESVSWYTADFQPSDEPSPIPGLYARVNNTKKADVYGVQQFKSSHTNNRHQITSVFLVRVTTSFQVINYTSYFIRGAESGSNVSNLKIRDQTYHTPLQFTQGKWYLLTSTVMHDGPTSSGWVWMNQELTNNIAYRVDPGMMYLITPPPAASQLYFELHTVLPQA
T1 sequence (Q9IFX1 429-647, one chain of several): as the sequence (Q9IFX1 429-647) above

Binder | Kd [1] [nM] | also measured
B1 | 40 | –
B2 | – | stoichiometry N [2]: 1 scFv per Spike 8 protomer (2:2 complex)
B3 | 0.00245 | –
B4 | – | stoichiometry N [3]: 1 scFv per Spike 8 protomer (2:2 complex)
